{
  "source": "paper PMC6651182",
  "about": "“Importance of the Choice of a Recombinant System to Produce Large Amounts of Functional Membrane Protein hERG” (International Journal of Molecular Sciences, 2019)",
  "key": {"hERG(S1-coil) [1]": {"target": "T1, hERG(S1-coil) (Homo sapiens, UniProt Q12809, N598Q)", "T1 construct": "hERG(362-675) + coiled-coil", "assay": "Electrophysiology on planar lipid bilayers with purified hERG(S1-coil) (stable HEK, DDM)", "assay_type": "biochemical", "settings": "samples pre-incubated with 10 µM toxin; lipid bilayer; data not shown", "protocol": "Crude membranes prepared from P. pastoris, Sf9 or stable HEK cells expressing hERG(S1-coil) were solubilized in 50 mM HEPES, pH 7.5, 300 mM KCl containing 1% DPC or DDM and 0.2% cholesteryl-hemisuccinate (CHS, Sigma Aldrich) at slow rotation at +4 °C for 1 h. Samples were centrifuged at 25,000 g for 15 min at +4 °C. […] After transferring to a column and washing the resin with 15 CV of 50 mM HEPES, pH 7.5, 300 mM KCl, 50 mM imidazole, 0.1% (w/v) DPC and 0.02% (w/v) CHS, hERG(S1-coil) was eluted with 250 mM imidazole in the same buffer. For purification of hERG(S1-coil) overexpressed in Sf9 cells in DPC, the supernatant was diluted 2-fold in 50 mM HEPES, pH 7.5 and transferred to a Strep-Tactin column (Strep-TactinSuperflow, IBA, Göttingen, Germany) at a ratio of 1 mL resin for 100 mL supernatant. […] Purified samples were analysed by SDS-PAGE and Western blot and protein concentrations determined by BCA assay.\nPlanar lipid bilayers were formed at room temperature by painting a solution of azolectin (Type IVS, Sigma Aldrich) at 45 mg/mL in decane across a 200 µm aperture in a polysulfonate cup (Warner Instruments, Hamden, CT, USA) separating two chambers. […] A total of 500 ng of chimeric hERG protein was added in the cis chamber and the resulting channel activity recorded for at least 2 min. […]"}, "hERG-wt": {"target": "hERG-wt (Homo sapiens, UniProt Q12809)", "assay": "Two-electrode voltage clamp in Xenopus oocytes, inhibition of hERG-wt tail current", "settings": "mean ± SEM, n = 7", "method": "(§1) (A). Current-voltage relationship for hERG-wt and hERG(S1-coil). Currents measured at the end of a 4 seconds long depolarizing pulse (from −70 to 30 mV) were normalized to the maximal current for hERG-wt (n = 21) and hERG(S1-coil) (n = 19). (B). Steady-state voltage-dependence of activation. […] (C).\n(§2) Stage V–VI oocytes were removed from female Xenopus under tricaine anaesthesia. […] After intensive washing with OR2 solution, oocytes were injected with RNA preparation (about 30 nL per oocyte) and recorded 2–5 days after injection. Currents were recorded at room temperature using the two-electrode voltage clamp method. Electrodes were pulled from borosilicate glass and filled with 3 M KCl. Currents were measured by a Geneclamp 500 amplifier (Molecular Devices, San Jose, CA, USA) and digitized by a Digidata 1200 converter (Molecular Devices) using Clampex 5 software (Molecular Devices). […] We determined the concentration to obtain the half maximal inhibition (IC50) by measuring the peak tail current recorded during the second pulse at −50 mV in the presence of increasing concentrations of inhibitor and normalized the value to the current measured in the absence of inhibitor. […] The significance of the difference between two results was determined using the unpaired Student’s test set at the 0.01 level."}, "hERG(S1-coil) [2]": {"target": "hERG(S1-coil) (Homo sapiens, UniProt Q12809)", "assay": "Two-electrode voltage clamp in Xenopus oocytes, inhibition of hERG(S1-coil) tail current", "settings": "mean ± SEM, n = 8", "method": "as §1, §2"}},
  "data": [
    {"substance": "BeKm-1 (RPTDIKCSESYQCFPVCKSRFGKTNGRCVNGFCDCF; UniProt Q9BKB7 22-57, looked up)", "values": [
      {"measurement": "current at −100 mV", "setting": "hERG(S1-coil) [1]", "value": "did not have any current"},
      {"measurement": "IC50", "setting": "hERG-wt", "value": "0.0217 ± 0.00276", "unit": "µM"},
      {"measurement": "IC50", "setting": "hERG(S1-coil) [2]", "value": "0.0249 ± 0.00377", "unit": "µM"}
    ]}
  ]
}
